One block for each binder: values may come before it.
Legend:
[1] = molecular target: T1, human IL2Rγ (endogenously expressed on cells) (human, UniProt P31785 23-369); experiment: cell-based or functional assay
T1 sequence (looked up): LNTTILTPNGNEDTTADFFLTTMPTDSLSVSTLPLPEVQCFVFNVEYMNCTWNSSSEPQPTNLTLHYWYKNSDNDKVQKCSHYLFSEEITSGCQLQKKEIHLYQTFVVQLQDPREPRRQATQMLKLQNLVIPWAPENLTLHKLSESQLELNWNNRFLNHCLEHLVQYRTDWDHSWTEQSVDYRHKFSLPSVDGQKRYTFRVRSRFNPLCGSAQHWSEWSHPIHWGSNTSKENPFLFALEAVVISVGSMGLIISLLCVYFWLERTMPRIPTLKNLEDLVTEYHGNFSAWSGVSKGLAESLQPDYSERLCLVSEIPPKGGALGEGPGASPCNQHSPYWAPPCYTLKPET

[2] = molecular target: T2, D1 domain of human IL-2Rγ extracellular domain expressed with a C-terminal myc-myc-hexahistidine tag (human); experiment: SPR, mAb captured on anti-hFc, 37 C
T2 construct: also called human IL2Rγ domain 1
T2 chain: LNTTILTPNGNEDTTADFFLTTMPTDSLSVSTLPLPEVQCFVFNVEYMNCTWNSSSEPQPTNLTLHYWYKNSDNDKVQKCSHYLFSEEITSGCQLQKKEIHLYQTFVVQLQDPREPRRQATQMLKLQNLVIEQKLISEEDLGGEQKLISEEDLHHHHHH
Experimental: (§1) Equilibrium dissociation constants (KD values) for IL-2Rγ binding to purified anti-IL2Rγ monoclonal antibodies were determined using a Biacore 4000 instrument equipped with a real-time surface plasmon resonance biosensor. All binding studies were performed in 10 mM HEPES, 150 mM NaCl, 3 mM EDTA, and 0.05% v/v Surfactant Tween-20, pH 7.4 (HBS-ET) running buffer at 25° C. and 37° C. The Biacore sensor surface was first derivatized by amine coupling with a monoclonal mouse anti-human Fc antibody (GE, # BR-1008-39) to capture anti-IL2Rγ monoclonal antibodies.
(§2) The dissociation of monoclonal antibody bound IL2Rγ reagents were monitored for 8-10 minutes in HBS-ET running buffer. Kinetic association (kₐ) and dissociation (kd) rate constants were determined by fitting the real-time sensorgrams to a 1:1 binding model using Scrubber 2.0c curve fitting software. Binding dissociation equilibrium constants (KD) and dissociative half-lives (t_{1/2}) were calculated from the kinetic rate constants as: […]

[3] = molecular target: T2, D1 domain of human IL-2Rγ extracellular …; experiment: SPR, mAb captured on anti-hFc, 25 C
Experimental: as §1, §2

[4] = molecular target: T3, D2 domain of human IL2Rγ extracellular domain expressed with a C-terminal myc-myc-hexahistidine tag (human); experiment: SPR, mAb captured on anti-hFc, 25 C
T3 construct: also called human IL2Rγ domain 2
T3 chain: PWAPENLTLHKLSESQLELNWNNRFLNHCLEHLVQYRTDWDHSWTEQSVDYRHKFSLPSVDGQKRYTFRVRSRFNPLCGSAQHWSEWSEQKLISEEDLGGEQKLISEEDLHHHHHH
Experimental: as §1

[5] = molecular target: T3, D2 domain of human IL2Rγ extracellular …; experiment: SPR, mAb captured on anti-hFc, 37 C
Experimental: as §1

[6] = molecular target: T3, D2 domain of human IL2Rγ extracellular …; experiment: SPR, mAb captured on anti-hFc, 25 C; 25 C
Experimental: as §1

B3: H4H12913P2 (antibody, human IgG4 S228P, kappa, V domains shown)
VH: EVQLVESGGGVVRPGGSLRLSCAASGFTFDDYGMSWVRQAPGKGLEWISSINRNGGSADYADSVKGRFTISRDNAKNSLFLQMSSLRAEDTALYHCASGEFRFDYWGQGTLVTVSS
VL: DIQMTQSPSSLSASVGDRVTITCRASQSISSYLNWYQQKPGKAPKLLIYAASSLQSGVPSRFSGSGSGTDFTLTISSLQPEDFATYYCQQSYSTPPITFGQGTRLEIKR
notes: human IgG4
- IC50; IL-4 250 pM; Ramos.2G6.4C10/STAT3-luc [1]: > 1e-07 M
- IC50; IL-7 50 pM; NK92/hIL7R/STAT3-luc [1]: > 1e-07 M
- IC50; IL-9 20 pM; NK92/hIL7R/STAT3-luc [1]: > 1e-07 M
- IC50; IL-15 60 pM; NK92/hIL7R/STAT3-luc [1]: > 1e-07 M
- Max Inhibition (%); IL-2 30 pM; NK92/hIL7R/STAT3-luc [1]: 24%
- Max Inhibition (%); IL-4 250 pM; Ramos.2G6.4C10/STAT3-luc [1]: 55%
- Max Inhibition (%); IL-7 50 pM; NK92/hIL7R/STAT3-luc [1]: 77%
- Max Inhibition (%); IL-9 20 pM; NK92/hIL7R/STAT3-luc [1]: 57%
- Max Inhibition (%); IL-15 60 pM; NK92/hIL7R/STAT3-luc [1]: 58%
- 100 nM Ag Bound [2]: 1 RU
- 100 nM Ag Bound [3]: 0 RU
- binding result [3]: no binding (tested: 100 nM)
- 100 nM Ag Bound [4]: 37 RU
- Kd [4]: 2.76 nM
- koff [4]: 0.000708 s⁻¹
- kon [4]: 256000 M⁻¹ s⁻¹
- t½ [4]: 16 min
- 100 nM Ag Bound [5]: 16 RU
- Kd [5]: 12.7 nM
- koff [5]: 0.00337 s⁻¹
- kon [5]: 266000 M⁻¹ s⁻¹
- t½ [5]: 3.4 min

B4: H4H12927P2 (antibody, human IgG4 S228P, kappa, V domains shown)
VH: EVQLVESGGGVVRPGGSLRLSCATSGFTFDDYGMSWVRQVPGKGLEWVSSVNRNGGTTDYADSVKGRFTISRDNAKRSLFLQMNSLRAEDTALYHCATGELFFDYWGQGTLVTVSS
VL: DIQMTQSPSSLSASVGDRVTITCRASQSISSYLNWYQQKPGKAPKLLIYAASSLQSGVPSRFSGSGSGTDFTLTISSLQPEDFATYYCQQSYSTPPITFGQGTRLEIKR
notes: human IgG4
- IC50; IL-7 50 pM; NK92/hIL7R/STAT3-luc [1]: > 1e-07 M
- Max Inhibition (%); IL-2 30 pM; NK92/hIL7R/STAT3-luc [1]: 18%
- Max Inhibition (%); IL-4 250 pM; Ramos.2G6.4C10/STAT3-luc [1]: 33%
- Max Inhibition (%); IL-7 50 pM; NK92/hIL7R/STAT3-luc [1]: 46%
- Max Inhibition (%); IL-15 60 pM; NK92/hIL7R/STAT3-luc [1]: 34%
- 100 nM Ag Bound [2]: 1 RU
- Kd [6]: 69.9 nM
- koff [6]: 0.0166 s⁻¹
- kon [6]: 238000 M⁻¹ s⁻¹
- t½ [6]: 0.7 min
- 100 nM Ag Bound [3]: 0 RU
- binding result [3]: no binding (tested: 100 nM)

The next lines start with the values.

- IC50; IL-4 250 pM; Ramos.2G6.4C10/STAT3-luc [1]: > 1e-07 M
- IC50; IL-7 50 pM; NK92/hIL7R/STAT3-luc [1]: > 1e-07 M
- Max Inhibition (%); IL-2 30 pM; NK92/hIL7R/STAT3-luc [1]: 15%
- Max Inhibition (%); IL-4 250 pM; Ramos.2G6.4C10/STAT3-luc [1]: 54%
- Max Inhibition (%); IL-7 50 pM; NK92/hIL7R/STAT3-luc [1]: 66%
- Max Inhibition (%); IL-9 20 pM; NK92/hIL7R/STAT3-luc [1]: 36%
- Max Inhibition (%); IL-15 60 pM; NK92/hIL7R/STAT3-luc [1]: 35%
- 100 nM Ag Bound [2]: 2 RU
- 100 nM Ag Bound [3]: 1 RU
- binding result [3]: no binding (tested: 100 nM)
- 100 nM Ag Bound [4]: -1 RU
- 100 nM Ag Bound [5]: 1 RU
B1: H4H12890P (antibody, human IgG4 S228P, kappa, V domains shown)
VH: EVQLVESGGGLVQPGGSLRLSCAASGFTFNNYAMHWVRQAPGKGLEYVSSISSSGGSTYYEDSVKGRFTISRDNSKNTLYLQMGSLRAEDMAVYYCARSFYGSGTYYDTFDMWGQGTMVTVSS
VL: DIQMTQSPSSLSASIGDRVTITCRASQSISRYLNWYQQKPGKAPKLLIYAASSLQSGVPSRFSASGSGTDFTLTISSLQPEDFATYYCQQSYSTPFTFGQGTKLEIKR
notes: human IgG4

- IC50; IL-7 50 pM; NK92/hIL7R/STAT3-luc [1]: 8.2e-10 M
- Max Inhibition (%); IL-4 250 pM; Ramos.2G6.4C10/STAT3-luc [1]: 31%
- Max Inhibition (%); IL-7 50 pM; NK92/hIL7R/STAT3-luc [1]: 36%
- 100 nM Ag Bound [2]: 33 RU
- Kd [2]: 21.2 nM
- koff [2]: 0.0036 s⁻¹
- kon [2]: 170000 M⁻¹ s⁻¹
- t½ [2]: 3.2 min
- 100 nM Ag Bound [3]: 47 RU
- Kd [3]: 11.8 nM
- koff [3]: 0.00111 s⁻¹
- kon [3]: 94000 M⁻¹ s⁻¹
- t½ [3]: 10 min
- 100 nM Ag Bound [4]: 0 RU
- 100 nM Ag Bound [5]: -1 RU
B2: H4H12871P (antibody, human IgG4 S228P, kappa, V domains shown)
VH: QVQLQESGPGLVKPSQTLSLTCTVSGGSITSGGYYWSWIRQYPGQGLEWIGYIYYSGKTYYNPSFTSRITISVDTSKKQFSLKMSSVTAADTAVYYCARAGFTSSNGWFDPWGQGTLVTVSS
VL: DIQMTQSPSSLSASVGDRVTITCRASQNIRSYLNWYQQKPGKAPKLLIYSASSLQSGVPSRFSGSGSGTDFTLTISSLQPEDFPTYYCQQTYSSPWTFGPGTKVEIKR
notes: human IgG4; also called REGN9434

From US20200247894A1 (Regeneron, published 2020)
